We go through five molecules from patent US20240034757A1 (OXFORD UNIVERSITY INNOVATION, published 2024).

For orientation: Kd means the concentration at which binding is half-saturated. Read a high Kd as weaker binding.

Changes are numbered by the printed parent chain.

The chains are these.
T1: CCL5_HUMAN (human, UniProt P13501 24-91)
T1 sequence: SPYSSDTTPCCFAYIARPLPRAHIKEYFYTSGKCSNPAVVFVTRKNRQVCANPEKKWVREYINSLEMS

T2: CCL8_HUMAN (human, UniProt P80075 24-99)
T2 sequence (looked up): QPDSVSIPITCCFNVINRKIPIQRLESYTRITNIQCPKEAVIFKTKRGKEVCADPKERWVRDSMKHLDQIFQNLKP

T3: P1095_IXORI (Ixodes ricinus, UniProt A0A0K8RCE3 24-112)
T3 sequence: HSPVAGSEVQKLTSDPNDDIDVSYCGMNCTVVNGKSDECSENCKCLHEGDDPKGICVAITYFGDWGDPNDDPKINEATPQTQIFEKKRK

T4: P1096_IXORI (Ixodes ricinus, UniProt A0A0K8RKE4 24-114)
T4 sequence: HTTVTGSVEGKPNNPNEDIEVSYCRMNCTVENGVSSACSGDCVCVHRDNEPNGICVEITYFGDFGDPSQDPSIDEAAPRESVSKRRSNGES

T5: P1134_IXORI (Ixodes ricinus, UniProt A0A0K8RAI0 32-135)
T5 sequence: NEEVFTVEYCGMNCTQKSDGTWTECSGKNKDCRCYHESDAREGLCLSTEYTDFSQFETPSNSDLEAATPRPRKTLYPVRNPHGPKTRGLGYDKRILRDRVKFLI

T6: CXCL11_HUMAN (human, UniProt O14625 22-94)
T6 sequence: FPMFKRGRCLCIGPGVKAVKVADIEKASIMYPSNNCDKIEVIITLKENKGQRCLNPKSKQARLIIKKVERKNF

T7: CXCL14_HUMAN (human, UniProt O95715 35-111)
T7 sequence: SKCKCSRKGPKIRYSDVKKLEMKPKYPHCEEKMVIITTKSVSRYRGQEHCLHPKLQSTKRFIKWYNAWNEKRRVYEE

T8: CXCL8_HUMAN (human, UniProt P10145 28-99)
T8 sequence: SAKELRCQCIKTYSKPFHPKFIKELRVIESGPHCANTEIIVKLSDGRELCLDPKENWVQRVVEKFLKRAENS

T9: CXCL2_HUMAN (human, UniProt P19875 35-107)
T9 sequence: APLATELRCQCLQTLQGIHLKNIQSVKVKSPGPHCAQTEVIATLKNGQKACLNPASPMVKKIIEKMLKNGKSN

T10: CXCL4_HUMAN (human, UniProt P02776 32-101)
T10 sequence: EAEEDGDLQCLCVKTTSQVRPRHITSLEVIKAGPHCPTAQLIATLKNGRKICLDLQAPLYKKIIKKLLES

T11: CXCL5_HUMAN (human, UniProt P42830 41-114)
T11 sequence: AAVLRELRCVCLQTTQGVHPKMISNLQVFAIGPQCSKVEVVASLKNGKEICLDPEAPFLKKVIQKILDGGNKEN

T12: CXCL10_HUMAN (human, UniProt P02778 22-98)
T12 sequence: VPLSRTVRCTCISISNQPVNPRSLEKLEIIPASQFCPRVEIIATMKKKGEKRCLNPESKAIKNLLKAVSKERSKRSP

T13: CCL25_HUMAN (human, UniProt O15444 24-150)
T13 sequence: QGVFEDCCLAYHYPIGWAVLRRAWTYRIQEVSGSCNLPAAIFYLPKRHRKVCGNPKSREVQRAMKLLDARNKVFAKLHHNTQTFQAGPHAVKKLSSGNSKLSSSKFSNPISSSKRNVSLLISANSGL

T14: P1127_IXORI (Ixodes ricinus, UniProt A0A0K8RJ67 29-108)
T14 sequence: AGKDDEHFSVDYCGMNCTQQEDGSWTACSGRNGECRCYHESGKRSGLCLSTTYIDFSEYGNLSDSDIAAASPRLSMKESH

T15: P1128_IXORI (Ixodes ricinus, UniProt A0A0K8R6B3 19-90)
T15 sequence: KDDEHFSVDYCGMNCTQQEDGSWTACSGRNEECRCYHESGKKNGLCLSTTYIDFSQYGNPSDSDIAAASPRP

T16: P1132_IXORI (Ixodes ricinus, UniProt V5GZ08 29-106)
T16 sequence: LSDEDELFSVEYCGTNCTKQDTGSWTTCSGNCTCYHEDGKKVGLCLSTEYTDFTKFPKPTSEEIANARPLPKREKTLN

T17: P1162_IXORI (Ixodes ricinus, UniProt A0A0K8RDJ1 29-99)
T17 sequence: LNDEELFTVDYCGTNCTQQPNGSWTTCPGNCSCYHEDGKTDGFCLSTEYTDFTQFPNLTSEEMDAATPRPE

T18: P1166_IXORI (Ixodes ricinus, UniProt A0A0K8RE99 25-110)
T18 sequence: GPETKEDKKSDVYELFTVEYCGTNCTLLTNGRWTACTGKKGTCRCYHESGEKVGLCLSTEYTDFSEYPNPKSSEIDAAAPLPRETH

T19: P1168_IXORI (Ixodes ricinus, UniProt A0A0K8RCU3 25-106)
T19 sequence: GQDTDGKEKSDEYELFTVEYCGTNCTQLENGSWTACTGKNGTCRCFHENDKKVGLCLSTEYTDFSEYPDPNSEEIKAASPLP

T20: P1170_IXORI (Ixodes ricinus, UniProt A0A0K8RD51 29-102)
T20 sequence: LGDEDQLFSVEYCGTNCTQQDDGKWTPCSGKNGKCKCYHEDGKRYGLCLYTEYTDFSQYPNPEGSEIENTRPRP

T21: P1172_IXORI (Ixodes ricinus, UniProt V5I2G9 24-94)
T21 sequence: T17 sequence with N2H, D3E, E4D, L6I, Q18K, P20S

T22: P1174_IXORI (Ixodes ricinus, UniProt V5I3C5 28-104)
T22 sequence: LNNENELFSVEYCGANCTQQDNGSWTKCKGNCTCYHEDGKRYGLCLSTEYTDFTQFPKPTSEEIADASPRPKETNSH

T23: P1229_IXORI (Ixodes ricinus, UniProt A0A0K8R4R9 32-108)
T23 sequence: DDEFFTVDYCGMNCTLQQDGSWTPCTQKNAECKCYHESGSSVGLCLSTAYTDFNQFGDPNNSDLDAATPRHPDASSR

T24: P1156_IXORI (Ixodes ricinus, UniProt V5HBW0 29-108)
T24 sequence: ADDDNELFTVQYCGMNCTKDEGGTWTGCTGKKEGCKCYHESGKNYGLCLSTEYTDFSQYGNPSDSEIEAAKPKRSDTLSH

B1: P467_RHIPU (other)
chain: AEKSLDSDSSGEDYELWTQGCPFLVAENRTGFGTTVSCQHNCNGAIEKVPEGEPCYTIGEDGLGRMKLNLPYNCSLGECSGGVCVPNGRSDVCFKRTWEENNKAMA
B2: CXCL13_HUMAN (ligand)
chain: VLEVYYTSLRCRCVQESSVFIPRRFIDRIQILPRGNGCPRKEIIVWKKNKSIVCVDPQAEWIQRMMEVLRKRSSSTLPVPVFKRKIP
B3: P1086_IXORI (other)
chain: GSKGQRASQVSETSITAEFCDTSCTQGTDKTWSGCSGDCFCVHVGNDTEGRCMRWDGDYPSAEEEE
B4: P1146_IXORI (other)
chain: GPDTKGDEESDENELFTVEYCGTNCTQLENGSWTPCSGNNGNCRCFHESDKTVGLCLSTEYTDFSEYPDPNSSEIIAAAPLPRERLIQ
B5: CXCL7_HUMAN (ligand)
chain: AELRCMCIKTTSGIHPKNIQSLEVIGKGTHCNQVEVIATLKDGRKICLDPDAPRIKKIVQKKLAGDESAD

The target of assay [1] is T1, CCL5_HUMAN. Nature of the assay: cell-based or functional assay.
Assay [2] has as its target CCL7_HUMAN (human, UniProt P80098 24-99). Nature of the assay: cell-based or functional assay.
In assay [3] the target is T2, CCL8_HUMAN. The experiment in a line: cell-based or functional assay.
Assay [4] deals with CCL2_HUMAN (human, UniProt P13500 24-99). Nature of the assay: cell-based or functional assay.
CCL2_HUMAN, sequence (P13500 24-99 limits assumed): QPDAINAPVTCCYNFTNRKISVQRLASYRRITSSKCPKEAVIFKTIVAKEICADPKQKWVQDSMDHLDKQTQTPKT
For assay [5], the target named is T25, P1080_IXORI (Ixodes ricinus, UniProt A0A090XBL6 20-118). Nature of the assay: BLI. For orientation: In BLI a coated tip is dipped into the sample, and binding shifts an interference pattern.
T25 sequence (A0A090XBL6 20-118): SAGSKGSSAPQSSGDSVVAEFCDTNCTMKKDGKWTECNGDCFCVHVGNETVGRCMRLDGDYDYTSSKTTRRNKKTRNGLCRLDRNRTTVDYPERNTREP
Assay [6] deals with T3, P1095_IXORI. The experiment in a line: BLI.
Assay [7] has as its target T4, P1096_IXORI. Nature of the assay: BLI.
Assay [8] addresses T5, P1134_IXORI. The experiment in a line: BLI.
In assay [9] the target is T6, CXCL11_HUMAN. Nature of the assay: BLI.
In assay [10] the target is CXCL12_HUMAN (human, UniProt P48061 22-89). Nature of the assay: BLI.
CXCL12_HUMAN, sequence (P48061 22-89 limits assumed): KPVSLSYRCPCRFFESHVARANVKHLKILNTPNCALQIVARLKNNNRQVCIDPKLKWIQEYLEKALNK
For assay [11], the target named is T7, CXCL14_HUMAN. Nature of the assay: BLI.
Assay [12] concerns the target B5. Nature of the assay: BLI [Cont.].
For assay [13], the target named is T8, CXCL8_HUMAN. Nature of the assay: BLI [Cont.].
Assay [14] addresses T9, CXCL2_HUMAN. Nature of the assay: BLI [Cont.].
For assay [15], the target named is T10, CXCL4_HUMAN. Nature of the assay: BLI [Cont.].
Assay [16] deals with T11, CXCL5_HUMAN. The experiment in a line: BLI [Cont.].
Assay [17] has as its target T12, CXCL10_HUMAN. The experiment in a line: yeast surface display FACS re-test.
In assay [18] the target is T13, CCL25_HUMAN. The experiment in a line: yeast surface display FACS.
The target of assay [19] is T25, P1080_IXORI. Nature of the assay: BLI [Cont.].
Assay [20] has as its target T3, P1095_IXORI. Nature of the assay: BLI [Cont.].
Assay [21] has as its target T4, P1096_IXORI. The experiment in a line: BLI [Cont.].
In assay [22] the target is T14, P1127_IXORI. The experiment in a line: BLI [Cont.].
For assay [23], the target named is T15, P1128_IXORI. Nature of the assay: BLI [Cont.].
Assay [24] has as its target T16, P1132_IXORI. Nature of the assay: BLI [Cont.].
Assay [25] has as its target T5, P1134_IXORI. The experiment in a line: BLI [Cont.].
The target in assay [26] is T17, P1162_IXORI. The experiment in a line: BLI [Cont.].
The target in assay [27] is T18, P1166_IXORI. Nature of the assay: BLI [Cont.].
For assay [28], the target named is T19, P1168_IXORI. Nature of the assay: BLI [Cont.].
Assay [29] has as its target T20, P1170_IXORI. Nature of the assay: BLI [Cont.].
Assay [30] addresses T21, P1172_IXORI. The experiment in a line: BLI [Cont.].
Assay [31] has as its target T22, P1174_IXORI. Nature of the assay: BLI [Cont.].
For assay [32], the target named is T23, P1229_IXORI. Nature of the assay: BLI [Cont.].
Assay [33] deals with T24, P1156_IXORI. Nature of the assay: BLI [Cont.) C].

CCL7_HUMAN, sequence (P80098 24-99 limits assumed): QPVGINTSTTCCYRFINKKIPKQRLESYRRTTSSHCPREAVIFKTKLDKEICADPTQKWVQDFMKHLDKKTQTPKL

Take B1: the “IC50, THP1 cell migration” value in assay [1] amounted to 8.74 nM; in assay [2], 11.1 nM; in [3], 1.92 nM; in assay [4], 3.26 nM.
The molecule B2 displayed a Kd in assay [5] of 1110 nM. The binding result in assay [6], in [7] and in assay [8] was “no binding (tested: 300 nM)” throughout.
As for B3, the binding result in assay [9], in [11], in [12], in assay [13] and in assay [15] was “no binding (tested: 300 nM)” in each case. Moreover, the Kd in assay [10] worked out at 142 nM; in assay [14], 34 nM; in [16] it was 26 nM. The “% cells over threshold fluorescence” value in assay [17] came to 63%.
Take B4: the binding result in assay [18] is listed as “binds”.
In the case of B5, the binding result in assay [19], in assay [20], in assay [21], in [22], in [23] and in assay [24] was “no binding (tested: 300 nM)” throughout. For the same molecule, the binding result in assay [25], in assay [26], in assay [27], in [28], in assay [29] and in assay [30] was “no binding (tested: 300 nM)” each time. Moreover, the binding result in assay [31], in assay [32] and in assay [33] was “no binding (tested: 300 nM)” each time.
